Assay: yeast display, Sf9 membrane polyspecificity reagent, FACS + sequencing; frameworks hold sequencing errors
Method in brief: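 A nanobody's polyreactivity label depends on the gate it was sorted from. Yeast display cells were stained with 10% biotinylated, detergent-solubilized Sf9 membrane reagent for 1 hour at 4 °C, enriched on streptavidin microbeads and sorted by FACS. The low and high (top ~1%) gates were set on anti-HA fluorescence for expression and streptavidin fluorescence for reagent binding.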

Row | Sequence | polyreactivity (PSR sort gate)
1 | QVQLVESGGGLVQAGGSLRLTCAASGNTFTTNVMGWYRQAPGKERELVARISWSGTSTSYADSVKGRFTISRDNAKNTVYLQMNSLKPEDTAVYYCAVGGIVHIRSRAQQEYYYWGHGTQVTVSS | high polyreactivity
2 | QVQLVESGGGLVQAGGSLRLSCAASGITFYANTMGWYRQAPGKERELVAAISGIGGSTYYADSVMGRFAISRDNAKNTVYLQMNSLKPEDTAVYYCNADVYYFLFGTFDYWGQGTQVTVSS | low polyreactivity
3 | QVQLVESGGGLVQAGGSHRLSCAPSGFTLADYTMAWYRPAPGKERELVAAITSGASTYYADSVKGRFTISRDNAKNTVYLQMNSLKPEDTAGYYCAARNDYYNTFSGYDYWGQGTQVTVSS | low polyreactivity
4 | QVQLQESGGGLVQAGGSLRLSCAASGSISRYYDMGWYRQAPGTEREFVAGISGGAITYYADRVKGRFTISRDNAKNTVYLQMNSLKPEDTAVDYCAADTGVYLYHSYWGQGTQVTVSS | low polyreactivity
5 | QVKLVESGGGLVQAGGSLRLSCAPSARIFDIYPLGWSRQAPGKERELVAGITSVGSTNYADSVKGRFTISRDNAKYTVYLQMTSLNPEDTAVYDCASVTSVHSEVDYWGQGTQVTVSS | low polyreactivity
6 | QVHLVESGGGLVQAGGSLRLSCAASGRILVRYAMGWYRQAPGKERELVAAISSSGSSTYYADSVKGRFTISRDNAKNTVYLQMNSLKPEDTAVYYCNKPDVTRGRDVYYWGQGTQVTVSS | low polyreactivity
7 | QVQLVESGGGLGKAGGSLRLSCAASGFIFYWNAMGWYRQAPGKEREFVATITWSGGSTYYADSVKGRFTISRDYAKNTVYLQMNSLKPEDTAFYYCAAEAPVQPFYVFNSGIYELDYWGQGTQVTVSS | low polyreactivity
8 | QVQLVESGGGLVQAGGSLRLSCAASGRIFTTYAKGWYRQAPGKERDLVAAISQNGGSTYYADSVKGRFTISRDNAKNTVYLPMNSLKPEDTAVYYCKAGAAGYYDYDYWGQGTQVTVSS | low polyreactivity
9 | QVQLVESGGGLVQAGGSLRLSCAASGSIFDGYAMGWYRQAPGKEREFVAAITKRTGRTYYADSVKGRFTISRDNAKNTVYLQMNSLKPEDTAVYSCAARKKSLTTLRYGYWGQGTQVTVSS | high polyreactivity
10 | QVQLVESGGGLVQAGGSLRLSCAASGSTFNYNAMGWYRQAPGKERELVAAINRSGGRTYYADSVKGRFTISRDNAKNTVYLKMNSLKPEDTAVYYCAKRYYKSLNRDEFDSWGQGTQVTVSS | high polyreactivity
11 | QVQLVESGGGLVQAGGSLRLSCAASGPTFSKANAMGWYRQAPVKERELVAAITDGGSTYADSVKGRFTISRDNAKNTVYLQINSLKPEDTAVYYCAKDTEVFYDASYDYWGQGTQVTVSS | low polyreactivity
12 | QVQLVESGGGLVQAGGSLRLSCAASGSIFNRNAMGWYRQAPGKERELVAAINYSGGSTYYADSVKGRFTISRDNAKNTVYLQMNSLKPEDTAVYYCAARPVALRKYDYWGQGTQVTVSS | low polyreactivity
13 | QVQLVESGGGLVQAGGSLRLICAASGRTFRSYAMGWYRQAPGKERELVAAISWSGGSTYYADSVKGRFTISRDNAKNTVYLQMNSLKPVDTAVYYCAAEVYYTYVYILDYWGQGTQVTVSS | high polyreactivity
14 | QVQLVESGGGLVQAGGSLRLSCAASGGIFGSYAMGWYRQAPGKERELVAAISWTGGSTYYADSVKGRFTISRDTAKNTVYLQMNSLKREDTAVYYCNADTYRRAQLRFNSWGQGTQVTVSS | low polyreactivity
15 | QVQLVESGGGLVQAGGSLRLSCAASGSIFLANAMGWYRQAPGKERELVAGISSSVTTNYADSVKGRFTISRDNAKNTVYLQMNSLKPEDTAVYYCNTVLRVQFYWGQGTQVSVSS | low polyreactivity
16 | QVQLVESGGGLDQAGGSLRLSCAPSGFIFIRNAMGWYRQAPGKDRELVAAISSGGRTYYADSVKGRFTISRDNAKNTVYLQMNSLKPEDTAVDYCATRPHRPRGQSVGQYDDWGQGTQVTVSS | high polyreactivity
17 | QVQLVESGGGLVQAGGSLRLSCAASGLTFRYYAMGWYRQAPGKERELVAAITGSGGSTYYADSVKGRFTISRDNAKNTVYLQMNSLKPEDTAVYYCADVIAEYDYFSYYYEYDYWGQGTQVTVSS | high polyreactivity
18 | QVQLVESGGGLVQAGGSLRLSCAASGFTFGSNDMGWYRQAPGKERELVAAINYSGVRTYYADSVKGRFTISRDNAKNTVYLQMNSLKPEDTAVYYCAKKRSKPISFDYWVQGTQVTVSS | high polyreactivity
19 | QVQLVESGGGLVQAGGSLRLSCAASGRTFGANAMGWYRQAPGKERELVATIRRGGSTYYADSVKGRFTISRDNAKNTVYLLMNSLKPEDTAVYYCATQYHSYAKEYDYWGQGTQVTVSS | low polyreactivity
20 | QVQLVESGGGLVQAGGSLRLSCAASGSIFGRYTMGWYRQAPGKERELVAAISSSGGRTYYADSVKGRFTISRDNAKNTVYLQMNSLKPEDTAVYYCNKGYGYEYYWGQGTQVTVSS | low polyreactivity
21 | QVQLVESGGGLVQAGGSLRLTCAASGYTFRGYAMGWYRQAPGKEREFVAAINWSDGSTYYADSVKGRFTISRDNAKNTVYLQMNSLKPEDTAVYYCNADQYYRVPDNYWGQGTQVTVSS | low polyreactivity

Row | Sequence | polyreactivity (PSR sort gate)
22 | QVQLVESGGGLVQAGGSLRLSCAASGFIFSYNAMGWYRQAPGKERVLVAAISSRGGSTYYADSVMGRFTISRDNAKNTVYLQMNSLKPEDTGVSYCAVASRRVYTAPYDYWGQGTQVTVSS | high polyreactivity
23 | QVQLVESGGGLVLAGGSLRLSCAASGRTFVQYAMGWYRQAPGTERELVAAISDRGGNTYYADSVKGRFTISRDNAKNTVYLQMNSLKPDDTAVYYCAAKIALDNDYWGQGTQVTVSS | high polyreactivity
24 | QVQLVESGGGLVQAGGSLRLSCAASGSTFYSYAMGWYRQAPGKERELVAAISWRGGTTYYADSVKGRFTISRDNAKNTVYLQMNSLKPEDTAVYYCNARFYRWRSYGYDYWGQGTQVTVSS | high polyreactivity
25 | QVQLVESVGGLVHAGGSLRLSCAASGSIFTKNAMGWYRHAPGKERELVAAITGSGGSTYYADSVKGRFTISRDNAKNTVYLQMNSLKPEDTALYYCAANFVFWSGAVYTRYDYWGQGTQVTVSS | high polyreactivity
26 | QVQLVESGGGLVQAGGSLRLSCAASGSTFVSNAMGGYRQAPGKERELVAAISSSGGRTSYADSVKGRFTISRDNAKNTVYLQMNSLKPEDTAVYYCAARFKSVDYVQYYYWGQGTQVTVSS | low polyreactivity
27 | QVQLVESGGGLVQAGGSLRLSCAASGFTFWRYAMGWYIQAPGKERELVAAISYSGGRTYYADSVKGRFTISRDNAKNTVYLQMNSLKPEDTAVYYCAASRVTYGGPYRDDYDYWGQGTQVTVSS | high polyreactivity
28 | QVQLVESGGGLVQAGGSLRLSCAASGITFRIYAMGWYRQAPGKEREFVAAINQRGGSTYYADSVKGRFTISRDNAKNTVYLQMNSLKPEDTAVYYCNADYSYVGEYDYWGQGTQVTVSS | low polyreactivity
29 | QVQVVQSGGGLVQAGGSLRLSCAASGSTFPGNAMGWNRQAPGKERELVASIRSSAASTYYADSVKGRFTISRDNAKNTVYLHMNSLKPEETAVYYWSVRSYRRFTNLSYRYDYWGQGTQVSVSS | high polyreactivity
30 | QVQLLESGGGLVPARGSLRLSCAASGRIFPQYVMGWYRQAPGKEREFVATISYSGGRTYYADSVKGRFTISRDNAMNTVYVQMNSLKPEDTAVYDCAAGTSAGWADDYWGQGTQVTVSS | high polyreactivity
31 | QVQLVESGGGLVQAGGSLRLSCAASGSTFAYYAMGWYRQAPGKERELVAAISRTGGSTYYADSVKGRFTISRDNAKNTVYLQMNSLKPEDNAVYYCNARGPVGTFDYDYWGQGTQVTVSS | low polyreactivity
32 | QVQLVESGGGLVQAGGSLRLSCAASGFIFVKYAMGWYRQAPGKERELVAAISWSGGTTYYSDSVKGRFTISRDNAKNTVYLKMNSLKPEDTAVYYCAAEYYTGYFKYDYWGQGTQVTVSS | high polyreactivity
33 | QVQLVESGGGLVQAGGSLRLSCAASGFIFGAYAMGWYRQAPGKESELVAAISWSGGRTYYADSLTGRFTISRDNAKNTVYLQMNSLKPEDTAVYYCAAAVYTTRYSASEYWGQGTEVTVSS | high polyreactivity
34 | QVQLVESGGGLVQAGGSLRLICAASGSTFDGNVMGWYRQAPGKERELVADIDSGGSTNYADSVKGRFTISRDNAKNTVYLQMNSLKPEDTAFYYCNAEWDDSFIRWFRYRGNYWGQGTQVTVSS | low polyreactivity
35 | QVQLVESGGGLVQAGGSLRLSCAASGSTFAPNAMGWYRQAPGKERELVAVIDSGDGTTYYADSVKGRFTISRDNAKNTVYLQMNSLKPEDTAVYYCAVDESTSYYDDHEDYWGQGTQVTVSS | low polyreactivity
36 | QVQLVESGGGLVQAGGSLRLSCAASGSIISRNAMGWYRQAPGKEREFVAAITRSGGSTSYADSVKGRFTISRDNAKNTVYLQMNSLKPEDTAVYYCSASFARSATAYLFDYWGQGTQVTVSS | high polyreactivity
37 | QVQHVESGGGLVQAGGSLRLSCAASGSIFDVYTMGWYRQAPGKQRELVAAINTGGGSTYYADSVKGRFTISRDNAKNTVYLQMISLKPEDTAVYYCAASVYHYGPLYYWGQGTQVTVSS | low polyreactivity
38 | QVQLVESGGGLVQAGGSLRLSCAASGRIFWAYAMGWYRQAPGKERELVADITSGGSTYYADSVKGRFTISRDNAKNNVYLQMNSLKPEDTAVYYCAVGSKWVDDSPEDEYWGQGTQVTVSS | low polyreactivity
39 | QVQLVESGGGLVQAGGSLRLSCAASGIIFDDNAMGWYRQAPGKERELVAAISSGSTTNYADSVKGRFTISRDNEKNTVYLQMTSLKPEDTAVYYCAAVDGLAFDYWGQGTQVTVSS | low polyreactivity
40 | QVQLVESGGGLVQAGGSLRLSCAASGIIFLWYAMGWYRQAPWKERELVAAISRTGSSTYYADSVKGRFTISRDNAKNTVYLQMNSLKPEDTAVYYCAAAYYSKRSWRFDYWGQGTQVTVSS | high polyreactivity
41 | KLQLVESGGGLVQAGGSLRLSCASSGSIFVWYAMGWYIQAPGKDRELVARITSGGRTNYADSVKGRFTISRDNAKNTVYLQMNSLKPEDTAVFYCAAGRVSWSPYYYWGQGTQVTVSS | high polyreactivity

From the nanobody polyreactivity screen of Harvey et al. (2022)
